From US20110177071A1 (PERSEID THERAPEUTICS, published 2011)
Residue numbers refer to the chain shown, from its start.

T1: human CD80-murine Ig fusion protein (human)
T1 construct: Bought (Ancell #510-820); also called hCD80-mIg; human CD80-murine IgG
T1 chain: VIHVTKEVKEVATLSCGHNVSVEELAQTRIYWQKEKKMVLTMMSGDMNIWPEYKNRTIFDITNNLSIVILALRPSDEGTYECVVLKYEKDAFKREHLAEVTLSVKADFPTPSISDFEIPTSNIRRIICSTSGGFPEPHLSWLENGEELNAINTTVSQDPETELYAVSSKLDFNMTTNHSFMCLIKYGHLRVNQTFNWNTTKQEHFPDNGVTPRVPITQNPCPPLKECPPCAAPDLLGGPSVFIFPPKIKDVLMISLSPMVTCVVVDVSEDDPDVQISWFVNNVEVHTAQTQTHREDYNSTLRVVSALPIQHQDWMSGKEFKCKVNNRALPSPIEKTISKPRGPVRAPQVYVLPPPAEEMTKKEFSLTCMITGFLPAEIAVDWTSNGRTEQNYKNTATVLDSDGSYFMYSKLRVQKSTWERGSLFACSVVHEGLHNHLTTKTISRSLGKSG

T2: human CD86-murine Ig fusion protein (human)
T2 construct: Bought (Ancell #509-820); also called hCD86-mIg
T2 chain: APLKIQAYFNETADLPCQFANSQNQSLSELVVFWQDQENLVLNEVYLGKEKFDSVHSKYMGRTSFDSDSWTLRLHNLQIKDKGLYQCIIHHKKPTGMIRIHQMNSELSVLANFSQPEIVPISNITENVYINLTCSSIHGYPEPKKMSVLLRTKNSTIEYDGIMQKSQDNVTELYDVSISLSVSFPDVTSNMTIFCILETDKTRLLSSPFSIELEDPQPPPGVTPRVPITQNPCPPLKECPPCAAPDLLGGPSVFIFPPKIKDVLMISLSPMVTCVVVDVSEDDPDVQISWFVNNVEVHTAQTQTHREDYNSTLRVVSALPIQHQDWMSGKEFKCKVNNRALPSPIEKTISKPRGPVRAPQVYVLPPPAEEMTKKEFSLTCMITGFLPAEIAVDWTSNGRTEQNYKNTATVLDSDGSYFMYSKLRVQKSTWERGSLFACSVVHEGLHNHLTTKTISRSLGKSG

T3: full-length human CD86 on HEK293 cells (human, UniProt P42081 24-329)
T3 sequence: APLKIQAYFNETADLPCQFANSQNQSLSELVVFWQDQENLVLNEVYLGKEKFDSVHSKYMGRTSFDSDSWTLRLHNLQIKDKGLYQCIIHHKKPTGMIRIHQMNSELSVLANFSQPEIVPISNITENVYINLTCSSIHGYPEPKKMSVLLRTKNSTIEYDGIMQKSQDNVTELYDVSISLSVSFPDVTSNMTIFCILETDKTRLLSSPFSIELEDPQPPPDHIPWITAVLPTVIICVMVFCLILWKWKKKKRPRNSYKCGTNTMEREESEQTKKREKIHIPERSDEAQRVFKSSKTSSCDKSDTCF

T4: monomeric hCD86 ECD (papain-digested hCD86-mIg) (human, UniProt P42081 24-243)
T4 construct: also called monomeric hCD86-mIg ligand; monomeric CD86 ECD
T4 chain: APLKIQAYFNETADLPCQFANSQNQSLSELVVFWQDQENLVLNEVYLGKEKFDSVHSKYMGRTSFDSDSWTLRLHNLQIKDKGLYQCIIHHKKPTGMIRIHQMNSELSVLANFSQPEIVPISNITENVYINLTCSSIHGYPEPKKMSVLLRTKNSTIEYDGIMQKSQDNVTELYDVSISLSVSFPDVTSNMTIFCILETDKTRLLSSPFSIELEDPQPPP

B1: D1-IgG2 (Fc fusion)
chain: MHVAQPAVVLASSRGIASFVCEYESPHKATEIRVTVLRQANSQVTEVCAMTYMKGDELTFLDDPFCTGTFSGNQVNLTIQGLRAADTGLYICKVELMYPPPYYLGIGNGTQIYVIDPEPCPDSDERKCCVECPPCPAPPVAGPSVFLFPPKPKDTLMISRTPEVTCVVVDVSHEDPEVQFNWYVDGVEVHNAKTKPREEQFNSTFRVVSVLTVVHQDWLNGKEYKCKVSNKGLPAPIEKTISKTKGQPREPQVYTLPPSREEMTKNQVSLTCLVKGFYPSDIAVEWESNGQPENNYKTTPPMLDSDGSFFLYSKLTVDKSRWQQGNVFSCSVMHEALHNHYTQKSLSLSPG
B2: D3-20-IgG2 (Fc fusion)
chain: B1 chain with H27G, T30N, N41D, D56N, F65S, A85M
B3: D3-27-IgG2 (Fc fusion)
chain: B1 chain with H27G, T30N, I32V, N41D, D56N, F65S, A85M
B4: D3-29-IgG2 (Fc fusion)
chain: B1 chain with E24A, H27G, T30N, N41D, F65S, A85M
B5: D3-31-IgG2 (Fc fusion)
chain: B1 chain with H27G, T30N, N41D, G55E, F65S
B6: D3-53-IgG2 (Fc fusion)
chain: B1 chain with H27G, T30N, N41G, F65S, L104E
B7: D3-IgG2 (Fc fusion)
chain: B1 chain with H27G, T30N, N41G, F65S, I106F
notes: also called clone D3

What was measured:
[1] = biological target: T1, human CD80-murine Ig fusion protein; test: SPR Biacore, hCD80-mIg captured
[2] = biological target: T2, human CD86-murine Ig fusion protein; test: SPR Biacore, hCD86-mIg captured; upper end of the KD bin (2x Orencia)
Method: (§1) All Biacore™ analyses were performed on a Biacore™ 2000 system (GE Healthcare) at room temperature (RT, 25° C.). HBS-EP buffer (10 mM HEPES (pH 7.4), 150 mM NaCl, 3 mM EDTA, 0.005% surfactant P20) was used as the flow buffer for all experiments.
(§2) Rabbit anti-mouse IgG antibody (GE Healthcare, #BR-1005-14) was immobilized on CM5 sensor chips (GE Healthcare, #BR-1000-14) according to the manufacturer's protocol. Antibody was diluted to 30 μg/ml in immobilization buffer (10 mM sodium acetate, pH 5.0 (BR-1003-51)). At a flow rate of 5 μl/minute, sensor chip CM5 was activated with a 35 μl injection of a mixture of 1-Ethyl-3-[3-dimethylaminopropyl]carbodiimide hydrochloride (EDC) and N-hydroxysuccinimide (NHS) (made by mixing equal volumes of 11.5 mg/ml EDC and 75 mg/ml NHS) (GE Healthcare, #BR-1000-50), followed by a 35 μl injection of undiluted antibody. Un-reacted sites were quenched with 35 μl of 1M ethanolamine-HCL, pH 8.5 (GE Healthcare, #BR-1000-50). […] CTLA-4 ligands human CD80-murine Ig (hCD80-mIg) (Ancell, #510-820) or human CD86-murine Ig (hCD86-mIg) (Ancell, #509-820) were bound to antibody-coated sensor chips by injection of 10 μl or 16 μl, respectively, ligand solution (2 μg/ml protein in HBS-EP buffer [10 mM HEPES pH 7.4, 150 mM NaCl, 3 mM EDTA, 0.005% (v/v) surfactant P-20, GE Healthcare, #BR-1001-88]) at a flow rate of 10 μl/min.

[3] = biological target: T2, human CD86-murine Ig fusion protein; test: SPR Biacore, hCD86-mIg captured; lower end of the KD bin (10x Orencia)
Method: as §1, §2

[4] = biological target: T3, full-length human CD86 on HEK293 cells; test: cell-based or functional assay
[5] = biological target: T4, monomeric hCD86 ECD (papain-digested …); test: SPR Biacore, fusion protein captured, monomeric hCD86 ECD in flow
Method: Regeneration between cycles was performed by 3 min incubation with 10 mM glycine buffer (pH 1.7) at 30 μl/min.
For kinetic analysis, data from monomeric binding assays were selected as described above except that association data selection began and ended 5 s from the injection start and stop times, and dissociation data selection started 5 s after the injection stop time, and typically included 1-60 s of the dissociation period. Such data were also analyzed for steady state equilibrium affinities using the BIAevaluation software. Steady state binding levels for each concentration (Responseeq (“Req”) values) were averaged over 5-20 s range near the end of the sample injection using the BIAevaluation “General fit: average” function.

[6] = biological target: T2, human CD86-murine Ig fusion protein; test: SPR Biacore, hCD86-mIg captured

Binder | Binding Avidity (Relative to Orencia) [1] [fold] | Kd [1] [nM] | Kd [2] [nM] | Kd [3] [nM] | Mean IC50 (nM), CD4+ T cell proliferation [4] [nM] | Kd [5] [nM] | Kd [6] [nM] | Binding Affinity (Relative to LEA29Y-Ig) [5] [fold] | Binding Avidity (Relative to Orencia) [6] [fold]
B1 | > 2 | < 0.439 | ≤ 2.65 | ≥ 0.523 | – | – | – | – | –
B2 | – | 0.439 to 1.75 | – | – | 0.04 | 336 to 840 | 0.131 to 0.262 | – | –
B3 | – | 0.439 to 1.75 | – | – | 0.04 | 336 to 840 | 0.131 to 0.262 | – | –
B4 | – | 0.439 to 1.75 | – | – | 0.04 | < 336 | < 0.131 | > 5 | > 40
B5 | > 2 | < 0.439 | – | – | 0.03 | < 336 | < 0.131 | > 5 | > 40
B6 | > 2 | < 0.439 | – | – | 0.02 | < 336 | < 0.131 | > 5 | > 40
B7 | – | 0.439 to 1.75 | – | – | 0.04 | < 336 | < 0.131 | > 5 | > 40
